Reference: article doi:10.1101/2020.10.20.346890 (bioRxiv, 2020)
Values joined by “and” are separate entries in the source; they are usually repeats but may differ in a detail not shown here. Equal entries are not always repeated.

Columns and labels:
[1] = molecular target: the molecule itself; experiment: cross-linking
[2] = molecular target: the molecule itself; experiment: SEC

B1: HU-B wild type (natural protein)
chain: MNKSQLIDKIAAGADISKAAAGRALDAIIASVTESLKEGDDVALVGFGTFAVKERAARTGRNPQTGKEITIAAAKVPSFRAGKALKDAVN
In the case of B1, the “stoichiometry N” value [1] is reported as 4 and 3 and 6 and the “stoichiometry N” value [2] is reported as 2.

B2: LysrHU-B (lysine-replaced HU-B) (other)
chain: MNKSQLIDKIAAGADISKAAAGRALDAIIASVTESLKEGDDVALVGFGTFAVKERAARTGRNPQTGKEITIAAAKVPSFRAGAALADAVN
In the case of B2, the “stoichiometry N” value [1] is reported as 2 and 4.

B3: LoodHU-B (loop-deleted HU-B) (other)
chain: MNKSQLIDKIAAGADISKAAAGRALDAIIASVTESLKEGDDVALVGFGTFASGGGGSGGGGSKVPSFRAGKALKDAVN
In the case of B3, the “stoichiometry N” value [1] is reported as 4 and the “stoichiometry N” value [2] is reported as 2.

B4: LoodLysrHU-B (loop-deleted and lysine-replaced HU-B) (other)
chain: MNKSQLIDKIAAGADISKAAAGRALDAIIASVTESLKEGDDVALVGFGTFASGGGGSGGGGSKVPSFRAGAALADAVN
For B4, the “stoichiometry N” value [1] was 2 and 4.
